Each block holds one substance with its values, some of them ahead of it.
Legend:
Test in all cases: gel electrophoresis; eluent of Ni-charged magnetic beads (0.5 M NaCl, 20 mM HEPES, 500 mM imidazole, 0.5% Genapol X-80, pH 8.0) after heating the lysate at 90 °C for 10 min; 4–20% Mini-PROTEAN TGX Gel, 200 V for 27 min; self-assembly, octamer band
[1] = target: MspA-D (M2 MspA with aspartic acid at site 91) (Mycobacterium smegmatis)
[2] = target: M2 MspA (Mycobacterium smegmatis porin A mutant M2) (Mycobacterium smegmatis) (UniProt A0QR29)
[3] = target: MspA-C (M2 MspA with cysteine at site 91) (Mycobacterium smegmatis)
[4] = target: MspA-H (M2 MspA with histidine at site 91) (Mycobacterium smegmatis)
[5] = target: MspA-M (M2 MspA with methionine at site 91) (Mycobacterium smegmatis)

Substance: MspA-D (M2 MspA with aspartic acid at site 91) (natural protein)
stoichiometry N [1]: 8

Substance: M2 MspA (Mycobacterium smegmatis porin A mutant M2) (from UniProt A0QR29 28-211) (natural protein)
stoichiometry N [2]: 8

Substance: MspA-C (M2 MspA with cysteine at site 91) (natural protein)
stoichiometry N [3]: 8

Further lines, results first:

stoichiometry N [4]: 8
Substance: MspA-H (M2 MspA with histidine at site 91) (natural protein)

stoichiometry N [5]: 8
Substance: MspA-M (M2 MspA with methionine at site 91) (natural protein)
